These results are taken from paper PMC7076015 (2020).

In the experiment the target is MBP-KPNA7(P339A) (human, UniProt A9QM74 1-516, P339A).

On to RGGNVGGKRKADGYNQPDSKRRQTN (domain or fragment) [GST-GFP-hnRNP R bipartite NLS], for which the Kd (usually the free concentration of one partner at which half of the binding sites on the other are occupied at equilibrium, for simple one-to-one binding) was about 157 nM.
